Test [1] deals with T1, S. cerevisiae Dhh1 residues 30-425 (DEAD-box core, RecA1 and RecA2) (S. cerevisiae, UniProt P39517 30-425).
T1 sequence: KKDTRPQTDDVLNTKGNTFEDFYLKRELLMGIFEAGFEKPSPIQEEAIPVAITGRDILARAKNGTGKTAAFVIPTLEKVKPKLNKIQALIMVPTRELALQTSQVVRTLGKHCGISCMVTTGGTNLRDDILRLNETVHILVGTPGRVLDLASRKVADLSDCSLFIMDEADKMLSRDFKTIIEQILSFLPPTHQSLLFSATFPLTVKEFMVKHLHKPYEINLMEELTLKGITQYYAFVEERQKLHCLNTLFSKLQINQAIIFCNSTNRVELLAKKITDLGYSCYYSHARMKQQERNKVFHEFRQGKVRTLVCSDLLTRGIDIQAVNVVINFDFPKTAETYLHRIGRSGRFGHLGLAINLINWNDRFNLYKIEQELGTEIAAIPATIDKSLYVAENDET
Nature of the test: pull-down.

Test [2] concerns the target T1, S. cerevisiae Dhh1 residues 30-425 …. Nature of the test: SEC.
For test [3], the target named is T2, S. cerevisiae Dhh1 residues 46-422 K234D, V238D (S. cerevisiae, UniProt P39517 46-422, K234D | V238D).
T2 sequence: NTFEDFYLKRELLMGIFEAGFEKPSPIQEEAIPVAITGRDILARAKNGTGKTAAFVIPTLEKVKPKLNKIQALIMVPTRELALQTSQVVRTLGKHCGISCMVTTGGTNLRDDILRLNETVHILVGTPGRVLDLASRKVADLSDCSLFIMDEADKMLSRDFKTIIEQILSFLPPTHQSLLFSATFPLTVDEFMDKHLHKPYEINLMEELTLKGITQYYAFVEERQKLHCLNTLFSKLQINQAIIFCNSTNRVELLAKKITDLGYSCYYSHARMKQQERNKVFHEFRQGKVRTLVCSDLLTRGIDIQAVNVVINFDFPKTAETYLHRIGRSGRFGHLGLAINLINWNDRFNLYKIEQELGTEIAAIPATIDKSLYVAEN
Nature of the test: crystal structure.

In test [4] the target is T3, S. cerevisiae Dhh1 residues 251-425 (RecA2 domain) (S. cerevisiae, UniProt P39517 251-425).
T3 sequence: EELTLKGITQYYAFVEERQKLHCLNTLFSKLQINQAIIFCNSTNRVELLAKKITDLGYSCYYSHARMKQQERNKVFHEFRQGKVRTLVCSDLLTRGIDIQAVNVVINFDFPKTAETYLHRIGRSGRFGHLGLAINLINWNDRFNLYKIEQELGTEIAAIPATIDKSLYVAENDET
Nature of the test: ITC.

For test [5], the target named is T1, S. cerevisiae Dhh1 residues 30-425 …. Nature of the test: ITC.

Data on 7 molecules can be found in PMC3783180 (Nucleic Acids Research, 2013).

B1: GST-tagged S. cerevisiae Pat1 residues 1-56 (domain or fragment)
chain: MSFFGLENSGNARDGPLDFEESYKGYGEHELEENDYLNDETFGDNVQVGTDFDFGN
With B1, the binding result in test [1] is reported as “binds”.

B2: GST-tagged S. cerevisiae Pat1 residues 1-114 (N-terminal domain) (domain or fragment)
chain: MSFFGLENSGNARDGPLDFEESYKGYGEHELEENDYLNDETFGDNVQVGTDFDFGNPHSSGSSGNAIGGNGVGATARSYVAATAEGISGPRTDGTAAAGPLDLKPMESLWSTAP
B2: the binding result in test [1] was “binds”.

B3: S. cerevisiae Pat1 residues 1-114, as in the purified complex with Dhh1 30-425 used for limited proteolysis (domain or fragment)
chain: B2 chain
Take B3: the binding result in test [2] is “binds”.

With QQNDYNQNRGEHIDWQDDDVSKIKQQEDFDFQRNLGMFNK (domain or fragment) [S. cerevisiae Edc3 residues 77-116, as crystallized], in test [3], the binding result is recorded as “binds”.

B4: S. cerevisiae Pat1 residues 5-79, as crystallized (domain or fragment)
chain: GLENSGNARDGPLDFEESYKGYGEHELEENDYLNDETFGDNVQVGTDFDFGNPHSSGSSGNAIGGNGVGATARSY
Regarding B4, in test [3], the binding result was “binds”.

B5: His6-SUMO-tagged S. cerevisiae Pat1 residues 5-79 (domain or fragment)
chain: B4 chain
In test [4], B5 registered a dissociation constant Kd of 32 nM.

B6: S. cerevisiae Edc3 residues 77-158, as used for ITC (domain or fragment)
chain: QQNDYNQNRGEHIDWQDDDVSKIKQQEDFDFQRNLGMFNKKDVFAQLKQNDDILPENRLQGHNRKQTQLQQNNYQNDELVIP
Molecule B6 came in with an equilibrium dissociation constant (Kd) in test [5] of 200 nM.
